What was measured:
[1] = target: T1, human FcRH5 (full-length, on cells) (human, UniProt Q96RD9 16-977); experiment: cell-based or functional assay
T1 sequence: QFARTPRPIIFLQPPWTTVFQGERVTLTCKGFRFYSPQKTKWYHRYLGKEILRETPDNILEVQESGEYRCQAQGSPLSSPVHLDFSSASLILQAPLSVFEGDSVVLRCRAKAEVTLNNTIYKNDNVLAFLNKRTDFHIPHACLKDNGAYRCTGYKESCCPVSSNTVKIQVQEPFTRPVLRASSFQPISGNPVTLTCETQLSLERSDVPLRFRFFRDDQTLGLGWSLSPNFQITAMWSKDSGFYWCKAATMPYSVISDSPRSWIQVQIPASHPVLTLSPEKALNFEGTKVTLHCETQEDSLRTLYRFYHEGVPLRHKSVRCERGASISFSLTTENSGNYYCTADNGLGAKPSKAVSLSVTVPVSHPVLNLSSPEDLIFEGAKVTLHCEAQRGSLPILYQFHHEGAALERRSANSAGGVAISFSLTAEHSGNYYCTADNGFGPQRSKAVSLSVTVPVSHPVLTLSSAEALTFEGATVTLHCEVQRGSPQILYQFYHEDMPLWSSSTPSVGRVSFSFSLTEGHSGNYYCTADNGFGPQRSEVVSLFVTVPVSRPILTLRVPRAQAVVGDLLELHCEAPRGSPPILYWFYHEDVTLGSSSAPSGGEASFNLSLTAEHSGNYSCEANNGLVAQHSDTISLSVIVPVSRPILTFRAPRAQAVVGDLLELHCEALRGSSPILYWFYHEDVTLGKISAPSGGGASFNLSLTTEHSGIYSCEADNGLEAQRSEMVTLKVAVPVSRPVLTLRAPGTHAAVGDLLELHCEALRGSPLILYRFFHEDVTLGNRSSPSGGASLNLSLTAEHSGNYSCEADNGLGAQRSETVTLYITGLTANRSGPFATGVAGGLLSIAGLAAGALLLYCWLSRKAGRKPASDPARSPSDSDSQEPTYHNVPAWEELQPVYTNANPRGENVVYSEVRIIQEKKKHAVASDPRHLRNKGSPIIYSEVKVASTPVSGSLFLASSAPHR

[2] = target: T2, human FcRH2 (full-length, on SVT2 cells) (human, UniProt Q96LA5 20-508); experiment: flow cytometry on SVT2-FcRH2 cells, PE-labelled secondary
T2 construct: whole, on cells; also called SVT2-FcRH2
T2 sequence (looked up): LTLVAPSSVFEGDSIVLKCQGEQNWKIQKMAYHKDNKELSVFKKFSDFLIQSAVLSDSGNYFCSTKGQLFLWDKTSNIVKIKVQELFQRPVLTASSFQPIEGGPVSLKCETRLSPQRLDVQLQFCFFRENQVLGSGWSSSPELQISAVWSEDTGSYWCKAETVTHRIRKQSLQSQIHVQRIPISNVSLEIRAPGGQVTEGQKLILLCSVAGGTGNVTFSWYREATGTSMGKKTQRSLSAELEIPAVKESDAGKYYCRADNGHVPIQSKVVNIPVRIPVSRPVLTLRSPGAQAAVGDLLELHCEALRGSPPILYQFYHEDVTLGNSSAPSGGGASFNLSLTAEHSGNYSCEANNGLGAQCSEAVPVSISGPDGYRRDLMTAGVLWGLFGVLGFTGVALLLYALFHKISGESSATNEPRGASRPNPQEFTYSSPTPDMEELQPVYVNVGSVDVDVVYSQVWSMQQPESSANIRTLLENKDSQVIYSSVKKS
Procedure: Human FcRH5, cyno FcRH5, human FcRH1, FcRH2, FcRH3, and FcRH4 transfected mouse SVT2 cells were used to test binding and cross-reactivity of FcRH5 TDBs. The method was carried out as follows. Cultured SVT2 cells were lifted using non-enzyme cell dissociation buffer (Sigma, #C5914). 1×10⁵ cells were suspended in 100 μL and incubated with FcRH5 TDBs at 3 μg/ml. […] Cells were washed twice with FACS buffer before flow cytometry analysis was carried out on a FACSCalibur.

[3] = target: T3, human FcRH5 protein fragment (soluble) (human, UniProt Q96RD9 16-851); experiment: SPR (BIACORE), TDB captured as ligand, Hu FcRH5 as analyte, 25 °C, 1:1 binding model
T3 construct: whole entry named; also called soluble human FcRH5; Human FcRH5 (BIACORE analyte)
T3 sequence: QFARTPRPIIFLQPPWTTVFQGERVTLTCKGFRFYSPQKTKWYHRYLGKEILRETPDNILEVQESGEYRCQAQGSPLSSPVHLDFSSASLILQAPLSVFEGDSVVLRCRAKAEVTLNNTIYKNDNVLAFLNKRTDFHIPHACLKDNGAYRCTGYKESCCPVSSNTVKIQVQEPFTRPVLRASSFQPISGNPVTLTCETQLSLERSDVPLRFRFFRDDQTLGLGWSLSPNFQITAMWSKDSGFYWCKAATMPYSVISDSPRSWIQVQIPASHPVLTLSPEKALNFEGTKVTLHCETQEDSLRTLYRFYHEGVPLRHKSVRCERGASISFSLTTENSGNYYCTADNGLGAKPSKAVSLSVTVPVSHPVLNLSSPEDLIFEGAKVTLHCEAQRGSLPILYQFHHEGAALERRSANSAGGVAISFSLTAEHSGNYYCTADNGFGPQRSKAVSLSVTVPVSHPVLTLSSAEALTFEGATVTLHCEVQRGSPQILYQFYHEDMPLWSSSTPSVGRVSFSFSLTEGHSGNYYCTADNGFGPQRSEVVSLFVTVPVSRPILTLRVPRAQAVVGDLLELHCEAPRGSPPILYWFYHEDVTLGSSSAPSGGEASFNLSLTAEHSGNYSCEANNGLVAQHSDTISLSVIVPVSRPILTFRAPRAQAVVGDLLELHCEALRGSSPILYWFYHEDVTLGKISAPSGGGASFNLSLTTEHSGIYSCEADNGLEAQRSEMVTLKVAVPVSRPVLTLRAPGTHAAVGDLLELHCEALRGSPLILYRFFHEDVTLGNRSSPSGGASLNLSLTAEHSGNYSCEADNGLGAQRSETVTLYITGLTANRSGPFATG

B1: 1G7.v85/38E4.v1 TDB (bispecific antibody, V domains shown)
VH 1: EVQLVESGPGLVKPSETLSLTCTVSGFSLTRFGVHWVRQPPGKGLEWLGVIWRGGSTDYNAAFVSRLTISKDNSKNQVSLKLSSVTAADTAVYYCSNHYYGSSDYALDNWGQGTLVTVSS
VL 1: DIQMTQSPSSLSASVGDRVTITCKASQDVRNLVVWFQQKPGKAPKLLIYSGSYRYSGVPSRFSGSGSGTDFTLTISSLQPEDFATYYCQQHYSPPYTFGQGTKVEIK
VH 2: EVQLVQSGAEVKKPGASVKVSCKASGFTFTSYYIHWVRQAPGQGLEWIGWIYPENDNTKYNEKFKDRVTITADTSTSTAYLELSSLRSEDTAVYYCARDGYSRYYFDYWGQGTLVTVSS
VL 2: DIVMTQSPDSLAVSLGERATINCKSSQSLLNSRTRKNYLAWYQQKPGQSPKLLIYWTSTRKSGVPDRFSGSGSGTDFTLTISSLQAEDVAVYYCKQSFILRTFGQGTKVEIK
notes: knob-into-hole TDB; also called 1G7.v85 TDB; 1G7.v85 (TDB format)
Question: What does the source list for B1?
Answer: killing of 293-FcRH5-PD-L1 cells by primed CD8+ cells, TDB alone, EC50 [1]: 0.63 ng/mL; killing of 293-FcRH5-PD-L1 cells, with anti-PD-1 antibody (pembrolizumab), EC50 [1]: 0.4 ng/mL; killing of 293-FcRH5-PD-L1 cells, with anti-PD-L1 antibody, EC50 [1]: 0.4 ng/mL; killing of MOLP-2 cells, EC50 [1]: 0.058 nM; killing of SVT2-FcRH5 cells in DMSO, IC50 [1]: 0.006 nM; killing of SVT2-FcRH5 cells in buffer, IC50 [1]: 0.007 nM; killing of SVT2-FcRH5 cells with 0.1 µM Dex, IC50 [1]: 0.016 nM; killing of plasma cells (PCs), median EC50 [1]: 25 ng/mL; binding result [2]: no binding; Kd [3]: 2.35 nM; koff [3]: 0.00104 s⁻¹; kon [3]: 441000 M⁻¹ s⁻¹

From US20240383984A1 (Genentech, published 2024)
